In patent US20240352087A1:

T1: HLA-A*01:01 (human), P04439
T1 chain: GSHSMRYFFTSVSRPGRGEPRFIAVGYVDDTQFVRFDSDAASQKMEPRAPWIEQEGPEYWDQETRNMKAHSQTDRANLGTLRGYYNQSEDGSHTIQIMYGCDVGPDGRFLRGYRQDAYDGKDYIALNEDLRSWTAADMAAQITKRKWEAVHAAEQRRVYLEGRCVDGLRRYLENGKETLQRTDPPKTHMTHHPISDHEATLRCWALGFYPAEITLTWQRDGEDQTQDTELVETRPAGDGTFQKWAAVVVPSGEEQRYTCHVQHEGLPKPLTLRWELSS

T2: HLA-A*02:01 (human), P04439
T2 chain: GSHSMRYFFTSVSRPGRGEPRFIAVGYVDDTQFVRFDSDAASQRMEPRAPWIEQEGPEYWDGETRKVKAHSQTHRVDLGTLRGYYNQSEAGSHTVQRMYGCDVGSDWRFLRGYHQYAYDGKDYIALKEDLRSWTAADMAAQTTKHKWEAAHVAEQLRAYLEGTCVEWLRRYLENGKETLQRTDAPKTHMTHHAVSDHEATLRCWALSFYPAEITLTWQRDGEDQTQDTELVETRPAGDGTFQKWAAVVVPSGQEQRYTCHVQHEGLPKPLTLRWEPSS


Columns and labels:
[1] = biological target: T1, HLA-A*01:01 (human), P04439; assay: HLA-binding assay; details: chains peptide; modification not given
[2] = biological target: T2, HLA-A*02:01 (human), P04439; assay: HLA-binding assay; details: chains peptide; modification not given

Binder	IC50 [1] [nM]	IC50 [2] [nM]
KSAIVTLTY [HPV E2 329-337 peptide …]	11	
QVDYYGLYY [HPV E2 151-159 peptide …]	18	
VLLLWITAA [HPV E5 46-54 peptide …]		11
